Laboratory results as given in PMC11079029, “Intramolecular autoinhibition regulates the selectivity of PRPF40A tandem WW domains for proline-rich motifs” (Nature Communications, 2024).

Columns and labels:
Settings in all cases: both partners purified
[1] = target: T1, GB1-polyproline peptide P10; experiment: ITC; GB1-peptide or GB1-SF1 construct in the cell, PRPF40A WW12 in the syringe (as shown in Supplementary Figures 7 and 16A); 25 °C, 20 mM sodium phosphate pH 6.5, 100 mM NaCl; one-site binding model; at least duplicates; affinities apparent
T1 chain: PPPPPPPPPP

[2] = target: T2, GB1-polyproline peptide P19; experiment: as above
T2 chain: PPPPPPPPPPPPPPPPPPP

[3] = target: T3, GB1-SF1 Pro ABCD (residues 410-639) (UniProt Q15637 410-639); experiment: ITC; PRPF40A construct (WW12, N-ext-WW12 or its mutant) in the cell, GB1-SF1 or GB1-SF3A1 construct in the syringe (as shown in Supplementary Figures 16 and 21); 25 °C, 20 mM sodium phosphate pH 6.5, 100 mM NaCl; one-site binding model; at least duplicates; affinities apparent
T3 construct: splicing factor 1 (SF1), residues 410-639, the complete proline-rich C-terminal region; His6-GB1-TEV site cassette of the pET24 vector, not cleaved; source: E. coli BL21(DE3), purified (Ni-NTA, SEC); not shown: GB1, N-terminal, kept
T3 sequence (looked up): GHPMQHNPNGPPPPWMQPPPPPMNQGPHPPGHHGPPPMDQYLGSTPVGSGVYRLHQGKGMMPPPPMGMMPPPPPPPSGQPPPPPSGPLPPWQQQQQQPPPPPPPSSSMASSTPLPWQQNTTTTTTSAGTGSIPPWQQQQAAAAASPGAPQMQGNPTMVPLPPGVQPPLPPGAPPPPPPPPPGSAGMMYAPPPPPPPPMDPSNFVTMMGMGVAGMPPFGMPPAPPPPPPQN

[4] = target: T4, GB1-SF1 Pro BCD (residues 468-639) (UniProt Q15637 468-639); experiment: as above
T4 construct: splicing factor 1 (SF1), residues 468-639; His6-GB1-TEV site cassette of the pET24 vector, not cleaved; source: E. coli BL21(DE3), purified (Ni-NTA, SEC); not shown: GB1, N-terminal, kept
T4 sequence (looked up): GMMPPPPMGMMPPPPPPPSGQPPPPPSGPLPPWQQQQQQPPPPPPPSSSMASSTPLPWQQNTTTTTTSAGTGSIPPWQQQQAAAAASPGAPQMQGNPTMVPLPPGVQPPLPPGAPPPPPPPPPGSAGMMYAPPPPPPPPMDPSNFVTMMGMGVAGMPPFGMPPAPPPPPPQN

[5] = target: T5, GB1-SF1 Pro CD (residues 539-639) (UniProt Q15637 539-639); experiment: as above
T5 construct: splicing factor 1 (SF1), residues 539-639; His6-GB1-TEV site cassette of the pET24 vector, not cleaved; source: E. coli BL21(DE3), purified (Ni-NTA, SEC); not shown: GB1, N-terminal, kept
T5 sequence (looked up): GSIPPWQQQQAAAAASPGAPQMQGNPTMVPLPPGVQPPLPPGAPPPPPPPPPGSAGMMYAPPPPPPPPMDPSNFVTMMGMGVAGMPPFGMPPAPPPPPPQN

[6] = target: T6, GB1-SF1 Pro BC (residues 468-594) (UniProt Q15637 468-594); experiment: as above
T6 construct: splicing factor 1 (SF1), residues 468-594; His6-GB1-TEV site cassette of the pET24 vector, not cleaved; also called SF1 BC; source: E. coli BL21(DE3), purified (Ni-NTA, SEC); not shown: GB1, N-terminal, kept
T6 sequence (looked up): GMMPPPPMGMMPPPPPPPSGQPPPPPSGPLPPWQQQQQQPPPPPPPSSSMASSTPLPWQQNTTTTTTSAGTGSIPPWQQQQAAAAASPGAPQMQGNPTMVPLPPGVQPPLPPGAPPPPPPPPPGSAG

[7] = target: T7, GB1-SF3A1 C-ter Pro (residues 552-683) (UniProt Q15459 552-683); experiment: as above
T7 construct: His6-GB1-TEV site cassette of the pET24 vector, not cleaved; source: E. coli BL21(DE3), purified (Ni-NTA, SEC); not shown: GB1, N-terminal, kept
T7 sequence (looked up): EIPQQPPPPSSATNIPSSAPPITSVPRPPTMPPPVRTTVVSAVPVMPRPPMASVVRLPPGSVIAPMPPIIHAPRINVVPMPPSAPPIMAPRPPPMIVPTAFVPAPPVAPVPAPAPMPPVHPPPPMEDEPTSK

B1: PRPF40A WW12 (tandem WW domains, residues 141-236) (domain or fragment, human, UniProt O75400 141-236, looked up)
chain: GAKSMWTEHKSPDGRTYYYNTETKQSTWEKPDDLKTPAEQLLSKCPWKEYKSDSGKPYYYNSQTKESRWAKPKELEDLEGYQNTIVAGSLITKSNL
notes: A few vector residues probably remain at the N-terminus after TEV cleavage (pETM11, NcoI site); 15N-labelled in the NMR experiments; also called PRPF40A WW tandem; WW12 wt; source: E. coli BL21(DE3), purified (Ni-NTA, TEV digestion, reverse Ni-NTA, SEC); not shown: His6, N-terminal, cleaved
- stoichiometry N [1]: 0.89 ± 0.11 sites
- stoichiometry N [2]: 1.1 ± 0.04 sites
- Kd [3]: 4.91 ± 0.51 µM
- Kd [4]: 3.65 ± 0.71 µM
- Kd [5]: 3.8 ± 0.69 µM
- Kd [6]: 6.83 ± 2.33 µM
- Kd [7]: 19.3 ± 4.5 µM
